# From the supplement of paper PMC7125110
# ± gives the standard error. Variants at the floor of the assay were thinned out.
# B1: glmS ribozyme (parent)
# chain: AUAAAAGCGCCAGAACUACAGAAAUGUAGUUGACGAGGAGGAGGUUUAUCGAAUUUUCGGCGGAUGCCUCCAAA
# Variants of: B1
# Assay: self-cleavage kobs at 10000 uM GlcN6P; higher = faster cleavage; RNA array
# Settings: with glucosamine-6-phosphate
# How it was run: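 Glucosamine-6-phosphate in HEPES/KCl/Mg(OAc)2 buffer, at 40 μM to 10 mM, was flowed over barcoded ribozyme variants transcribed in situ by E. coli RNA polymerase on sequenced MiSeq chips. Tracking was through a hybridised Cy3 probe at 37 °C. kobs, kcat and KM came from exponential decay fits and weighted Michaelis–Menten fits of normalised per-tile medians.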
row,Variant,self-cleavage kobs at 10000 uM GlcN6P
1,A36U G43C U54C U55C G63C C71A,< 1e-05 s⁻¹
2,U30G U45A C71G,0.000315 ± 5.9e-05 s⁻¹
3,G41U C67U,2.83e-05 ± 1.1e-05 s⁻¹
4,A15U G44U,3.08e-05 ± 1.4e-05 s⁻¹
5,G37C U54A,4.2e-05 ± 1e-05 s⁻¹
6,A12U A33C C34U C70G,< 1e-05 s⁻¹
7,G29A G32U C70A,4.82e-05 ± 1.8e-05 s⁻¹
8,C16G G32U C70U,0.000712 ± 0.00013 s⁻¹
9,U31A A42G U46C,0.000411 ± 9.2e-05 s⁻¹
10,U45G U46C U54G,0.00762 ± 0.0023 s⁻¹
11,A36C G38C A64C,< 1e-05 s⁻¹
12,G29U U46A U54C,7.78e-05 ± 2e-05 s⁻¹
13,A15G U65C C67U,7.42e-05 ± 1.7e-05 s⁻¹
14,C16U G38A A52G C71G,< 1e-05 s⁻¹
15,U30A U65A C71U,0.000453 ± 8.5e-05 s⁻¹
16,G32U G40U C70U,5.9e-05 ± 1.3e-05 s⁻¹
17,G38U A39U A42C A48U,< 1e-05 s⁻¹
18,U31A A36U U47G C70G,5.95e-05 ± 1.5e-05 s⁻¹
19,A12G U30G A53U,9.4e-05 ± 2e-05 s⁻¹
20,U31G G43C U45G,0.000273 ± 8.2e-05 s⁻¹
21,A14C A33G C58G U65C,< 1e-05 s⁻¹
22,U30A C61A,< 1e-05 s⁻¹
23,G40C G51C U57A,< 1e-05 s⁻¹
24,G40A G44U U47G G60U C61U C68U,< 1e-05 s⁻¹

row,Variant,self-cleavage kobs at 10000 uM GlcN6P
1,C34U G44U U54A G63C,< 1e-05 s⁻¹
2,A36G U46A C58A,< 1e-05 s⁻¹
3,G29C C34U G38A C71U,< 1e-05 s⁻¹
4,G13U U54A U56C,0.000163 ± 3.3e-05 s⁻¹
5,C34G G35U G38A C50A U69G,0.000375 ± 5.4e-05 s⁻¹
6,A42G C58A C67U,0.00012 ± 1.9e-05 s⁻¹
7,G13C G32A U45G A52C C70U,< 1e-05 s⁻¹
8,A14G U30A G41U C68A,< 1e-05 s⁻¹
9,G13A G35U G37C,< 1e-05 s⁻¹
10,G43U U65G C68U,0.0019 ± 0.00044 s⁻¹
11,G29C U46A,7.43e-05 ± 1.7e-05 s⁻¹
12,A12U A15U G29A,0.00126 ± 0.00032 s⁻¹
13,G29C U49A C50A,< 1e-05 s⁻¹
14,C16U G29U G32C,8.38e-05 ± 1.7e-05 s⁻¹
15,G13A G29A G63U,< 1e-05 s⁻¹
16,A14G A36C U54A G63U,< 1e-05 s⁻¹
17,G32U G43U A53G G63U A64G G66U,< 1e-05 s⁻¹
18,A14G G29U G40C,0.00075 ± 0.00013 s⁻¹
19,A14U A36C A48G C61U,< 1e-05 s⁻¹
20,G13A C16U G32U,0.000302 ± 4.9e-05 s⁻¹
21,U30G U55G C70G,4.53e-05 ± 1.9e-05 s⁻¹
22,G32A A52G C70A,5.69e-05 ± 2.3e-05 s⁻¹
23,A42G U55A C68G,7.44e-05 ± 2e-05 s⁻¹
24,C16G U47A C61G,< 1e-05 s⁻¹

row,Variant,self-cleavage kobs at 10000 uM GlcN6P
1,A14G G44C U55G C67U,0.000221 ± 4.1e-05 s⁻¹
2,A14U G35C G41A U46A,< 1e-05 s⁻¹
3,U31C U47C C70U,0.000673 ± 0.00014 s⁻¹
4,A12U C16G G40U,0.000769 ± 0.00016 s⁻¹
5,G32A A33U G37U,< 1e-05 s⁻¹
6,A42U A64C C67U,< 1e-05 s⁻¹
7,G41C U57G,< 1e-05 s⁻¹
8,A33U U45A U55C C71U,< 1e-05 s⁻¹
9,A12G U30G U47C U49C,< 1e-05 s⁻¹
10,A33G G37A U69G,< 1e-05 s⁻¹
11,A33U G35C G62U C67U,< 1e-05 s⁻¹
12,G29C C34G G40C C70A,< 1e-05 s⁻¹
13,A39G U45G C70A,0.000127 ± 4.2e-05 s⁻¹
14,A14U A48C U56G C68A,< 1e-05 s⁻¹
15,G13C U30C U47A,8.1e-05 ± 2.1e-05 s⁻¹
16,G35C G38U G43A G51C G60C,< 1e-05 s⁻¹
17,G29C U46G A64U,< 1e-05 s⁻¹
18,A14U U55C C67A C70A C71U,< 1e-05 s⁻¹
19,A42U A48U U65C,< 1e-05 s⁻¹
20,A42U U56C,5.38e-05 ± 1.2e-05 s⁻¹
21,G29U U55A U69A,4.12e-05 ± 1.6e-05 s⁻¹
22,G13C A36C U54C,< 1e-05 s⁻¹
23,A18C G38A C50U C58U G59U,< 1e-05 s⁻¹
24,A12G A14C U31C U47G A52G G59A G60U,< 1e-05 s⁻¹

row,Variant,self-cleavage kobs at 10000 uM GlcN6P
1,G13C G43A,< 1e-05 s⁻¹
2,A12G A14C C50G C71A,0.000133 ± 3.2e-05 s⁻¹
3,A33C U46C,4.16e-05 ± 1.7e-05 s⁻¹
4,G41A U45C A53U,0.000355 ± 8.4e-05 s⁻¹
5,G13C A14G G41U,6.44e-05 ± 1.7e-05 s⁻¹
6,C34A A64G U69C,< 1e-05 s⁻¹
7,A14G U30G U47C,0.00168 ± 0.00041 s⁻¹
8,G40C G41A C50U,< 1e-05 s⁻¹
9,A14C G41C,3.51e-05 ± 1.1e-05 s⁻¹
10,C16U G29C G35U A39G,< 1e-05 s⁻¹
11,G41A U56C,3.52e-05 ± 1.7e-05 s⁻¹
12,G32C A36U G37A C61A C67U,9.54e-05 ± 1.4e-05 s⁻¹
13,C16U U45C U55G,0.00144 ± 0.0003 s⁻¹
14,U31G U56C C58U,6.36e-05 ± 1.2e-05 s⁻¹
15,A15U G59U C71G,< 1e-05 s⁻¹
16,A33U A53U G59U,< 1e-05 s⁻¹
17,A15G G63U A64G,< 1e-05 s⁻¹
18,G32U A53G C67G,0.000238 ± 3.8e-05 s⁻¹
19,A12C U30A U47A G51U,< 1e-05 s⁻¹
20,A12U C34A A39U C70U,< 1e-05 s⁻¹
21,C16G G37C G62A,< 1e-05 s⁻¹
22,A14G U54A C70G,0.000124 ± 2.6e-05 s⁻¹
23,C16G G29A C67A,0.000261 ± 8.9e-05 s⁻¹
24,G13U G38C C58U C61U,< 1e-05 s⁻¹

row,Variant,self-cleavage kobs at 10000 uM GlcN6P
1,G40C U45A U49G,5.2e-05 ± 1.9e-05 s⁻¹
2,G35C G37U C68G,7.56e-05 ± 2.4e-05 s⁻¹
3,A14U A53C C67U,0.000208 ± 3.8e-05 s⁻¹
4,G13U U30A G43C,< 1e-05 s⁻¹
5,A33C G37U C70G,< 1e-05 s⁻¹
6,A42C C50U C68A C70A,< 1e-05 s⁻¹
7,A36C A48U G63A,< 1e-05 s⁻¹
8,A42G U46G U56C,0.00095 ± 0.0002 s⁻¹
9,U30C G40A A53C C58U,< 1e-05 s⁻¹
10,A12U G59A C67G,4.16e-05 ± 1.6e-05 s⁻¹
11,A14U C50G G62A A64G,0.000115 ± 2.4e-05 s⁻¹
12,A14G C16A G40C G63U,< 1e-05 s⁻¹
13,G32C G38C G60U C67G,< 1e-05 s⁻¹
14,A15G A52G C67U C71G,4.89e-05 ± 1.3e-05 s⁻¹
15,A33C G35A U46G C50U U56G C71A,< 1e-05 s⁻¹
16,G13C G40A,2.64e-05 ± 9.8e-06 s⁻¹
17,G29A A64G C67G,5.14e-05 ± 2e-05 s⁻¹
18,G32C C68G C71G,0.000123 ± 2.3e-05 s⁻¹
19,G32C A53G C67G,3.72e-05 ± 1.3e-05 s⁻¹
20,G40U G43U U54C,< 1e-05 s⁻¹
21,A14C A15U G32C C58U,3.19e-05 ± 1.1e-05 s⁻¹
22,A14U A39C U65C,6.04e-05 ± 1.6e-05 s⁻¹
23,A15G G29C G43U G60U,< 1e-05 s⁻¹
24,G41U U57C A64C,< 1e-05 s⁻¹

row,Variant,self-cleavage kobs at 10000 uM GlcN6P
1,C34U G38U G40U,< 1e-05 s⁻¹
2,A33U G62U C71A,< 1e-05 s⁻¹
3,C34A A36C G37U U69G,0.000153 ± 3.2e-05 s⁻¹
4,G32A A64U C68U,< 1e-05 s⁻¹
5,G29A A33U,3.01e-05 ± 5.5e-06 s⁻¹
6,G29A C58U C70U,5.99e-05 ± 1.7e-05 s⁻¹
7,A12G A14G G59C,0.000119 ± 3.7e-05 s⁻¹
8,C16A G44A C67A,9.58e-05 ± 2.5e-05 s⁻¹
9,G26U U69A,6.81e-05 ± 2.1e-05 s⁻¹
10,A15C A36C C67A,< 1e-05 s⁻¹
11,U45A A53G U55A U65A C67A,0.000759 ± 0.00025 s⁻¹
12,U30G G37U A52U G59A,< 1e-05 s⁻¹
13,A12G C16A G29U,0.000458 ± 9.3e-05 s⁻¹
14,G43U G44U U65G,< 1e-05 s⁻¹
15,G44A U45A C58G,< 1e-05 s⁻¹
16,A12U G44A A52U,4.81e-05 ± 2e-05 s⁻¹
17,G38A U46G U57G C58A,< 1e-05 s⁻¹
18,U30G G62A C67A,< 1e-05 s⁻¹
19,G37C G59U C61G,< 1e-05 s⁻¹
20,G32U U45G U46C C67A,7.22e-05 ± 2e-05 s⁻¹
21,A15G A33C U46G,4.59e-05 ± 1.3e-05 s⁻¹
22,U31A G66C,0.000307 ± 9.3e-05 s⁻¹
23,A36C G37C A53U U69C,< 1e-05 s⁻¹
24,C16U G44A U54G,0.000358 ± 7.9e-05 s⁻¹

row,Variant,self-cleavage kobs at 10000 uM GlcN6P
1,U30G U31G U46C U65G,5.94e-05 ± 2.6e-05 s⁻¹
2,A33U G41U U49A A52U U69A,< 1e-05 s⁻¹
3,G35C G59A C61U,< 1e-05 s⁻¹
4,A12U A15U C16A,0.00105 ± 0.00024 s⁻¹
5,A14C A52G C61A,< 1e-05 s⁻¹
6,U30G A33G C71G,< 1e-05 s⁻¹
7,A15U G32U U54A,0.00058 ± 0.00013 s⁻¹
8,A12G U55A C68U,0.00042 ± 0.0001 s⁻¹
9,A14C A48C G59U,< 1e-05 s⁻¹
10,G13U G40A G66C C71A,2.79e-05 ± 1.3e-05 s⁻¹
11,A14G G40C U49G C50G G51C,< 1e-05 s⁻¹
12,U31G U47C U54A,0.00049 ± 8.9e-05 s⁻¹
13,U31A G51U C68A,< 1e-05 s⁻¹
14,U31C C50G G63A,3.51e-05 ± 1.5e-05 s⁻¹
15,A15G C16U A39U,0.00651 ± 0.0013 s⁻¹
16,A39U U46A A53G,0.00108 ± 0.00026 s⁻¹
17,A12U G40C G41U,6.81e-05 ± 1.9e-05 s⁻¹
18,U30G U49A C68A,< 1e-05 s⁻¹
19,A39U U55C U65C,0.00435 ± 0.00052 s⁻¹
20,A12G C58A C71A,5.83e-05 ± 1.4e-05 s⁻¹
21,A36U U49A,8.19e-05 ± 9.1e-06 s⁻¹
22,A42C U49C U57A,< 1e-05 s⁻¹
23,A15G C16U G51U,< 1e-05 s⁻¹
